Assay results taken from patent publication US20240018502A1.
Substitutions are numbered along the chain they refer to. In names and notes the source's numbering stands. Each block holds one binder with its values, some of them ahead of it.

Molecular target: plasma purified human complement protein C3 (human) (UniProt P01024)
Test: cell-based or functional assay

Chain of plasma purified human complement protein C3 (human) (P01024 23-667, chain 1 of 2): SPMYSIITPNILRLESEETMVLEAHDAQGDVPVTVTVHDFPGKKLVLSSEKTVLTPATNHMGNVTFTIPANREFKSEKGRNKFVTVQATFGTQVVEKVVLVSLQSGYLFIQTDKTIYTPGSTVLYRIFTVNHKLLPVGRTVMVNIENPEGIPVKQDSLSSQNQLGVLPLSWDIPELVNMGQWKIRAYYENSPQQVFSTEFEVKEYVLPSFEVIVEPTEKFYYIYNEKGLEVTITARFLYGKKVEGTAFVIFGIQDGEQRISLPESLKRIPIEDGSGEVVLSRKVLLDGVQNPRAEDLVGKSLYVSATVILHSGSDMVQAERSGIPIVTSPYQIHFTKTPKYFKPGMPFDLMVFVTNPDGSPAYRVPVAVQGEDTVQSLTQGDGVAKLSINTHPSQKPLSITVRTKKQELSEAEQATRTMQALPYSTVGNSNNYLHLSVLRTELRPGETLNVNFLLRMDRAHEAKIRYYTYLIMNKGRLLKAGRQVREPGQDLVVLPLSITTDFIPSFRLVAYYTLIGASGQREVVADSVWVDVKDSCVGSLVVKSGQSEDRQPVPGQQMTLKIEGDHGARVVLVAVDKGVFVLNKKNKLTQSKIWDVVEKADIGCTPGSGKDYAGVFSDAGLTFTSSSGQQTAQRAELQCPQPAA
Chain of plasma purified human complement protein C3 (human) (P01024 672-1663, chain 2 of 2): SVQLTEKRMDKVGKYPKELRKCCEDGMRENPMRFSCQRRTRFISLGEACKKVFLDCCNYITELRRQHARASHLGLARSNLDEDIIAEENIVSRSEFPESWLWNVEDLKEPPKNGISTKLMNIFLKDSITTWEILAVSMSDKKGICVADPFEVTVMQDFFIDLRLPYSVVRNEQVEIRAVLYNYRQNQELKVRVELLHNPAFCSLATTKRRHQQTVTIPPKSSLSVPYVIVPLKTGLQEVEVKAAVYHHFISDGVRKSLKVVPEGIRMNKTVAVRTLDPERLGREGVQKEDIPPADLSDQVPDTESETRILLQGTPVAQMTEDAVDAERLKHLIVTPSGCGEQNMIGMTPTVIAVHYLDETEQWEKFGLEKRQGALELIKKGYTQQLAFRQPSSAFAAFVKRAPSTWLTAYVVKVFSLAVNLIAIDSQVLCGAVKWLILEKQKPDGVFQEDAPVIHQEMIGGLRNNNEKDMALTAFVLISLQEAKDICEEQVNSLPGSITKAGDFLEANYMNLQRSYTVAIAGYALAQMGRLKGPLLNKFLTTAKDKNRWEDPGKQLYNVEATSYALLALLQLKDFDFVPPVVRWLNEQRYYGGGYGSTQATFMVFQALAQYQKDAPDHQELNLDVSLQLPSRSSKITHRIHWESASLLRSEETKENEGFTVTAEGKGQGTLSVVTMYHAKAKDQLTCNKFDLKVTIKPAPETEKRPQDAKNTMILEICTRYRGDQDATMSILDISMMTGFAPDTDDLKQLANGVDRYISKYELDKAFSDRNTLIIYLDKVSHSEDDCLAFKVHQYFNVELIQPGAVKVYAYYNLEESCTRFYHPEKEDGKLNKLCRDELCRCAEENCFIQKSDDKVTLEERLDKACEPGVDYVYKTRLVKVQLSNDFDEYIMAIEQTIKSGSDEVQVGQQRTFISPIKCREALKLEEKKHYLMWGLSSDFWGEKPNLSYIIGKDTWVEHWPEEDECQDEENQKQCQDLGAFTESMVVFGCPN

EC50 of hC3 cleavage: 19.5 nM
B1: MTSP-1 Q38K/I41T/D60bY/ins97aV/F97D/T98P/F99L/C122S/I136T/Q192G/F208V/D217R (enzyme)
chain: VVGGTDADEGEWPWQVSLHALGKGHTCGASLISPNWLVSAAHCYIDYRGFRYSDPTQWTAFLGLHDQSQRSAPGVQERRLKRIISHPFFNDDVPLDYDIALLELEKPAEYSSMVRPISLPDASHVFPAGKATWVTGWGHTQYGGTGALILQKGEIRVINQTTCENLLPQQITPRMMCVGFLSGGVDSCGGDSGGPLSSVEADGRIVQAGVVSWGRGCAQRNKPGVYTRLPLFRDWIKENTGV

EC50 of hC3 cleavage: 1.97 nM
B2: MTSP-1 Q38H/I41S/D60bY/D96Y/ins97aV/F97D/T98P/F99L/L106M/C122S/I136M/Q192G/Q209L/D217T (enzyme)
chain: B1 chain with K23H, T26S, D91Y, L102M, T132M, V206F, Q207L, R215T

EC50 of hC3 cleavage: 16.9 nM
B3: MTSP-1 Q38H/I41S/L52M/D60bH/D96V/ins97aV/F97D/T98P/F99L/C122S/T150A/Q192G/Q209L/D217T (enzyme)
chain: B1 chain with K23H, T26S, L37M, Y47H, D91V, T132I, T145A, V206F, Q207L, R215T

EC50 of hC3 cleavage: 22.5 nM
B4: MTSP-1 Q38H/I41S/D60bT/F60eS/Y60gW/ins97aV/F97D/T98P/F99L/C122S/G151N/Q175A/Q192D (enzyme)
chain: VVGGTDADEGEWPWQVSLHALGHGHSCGASLISPNWLVSAAHCYIDTRGSRWSDPTQWTAFLGLHDQSQRSAPGVQERRLKRIISHPFFNDDVPLDYDIALLELEKPAEYSSMVRPISLPDASHVFPAGKAIWVTGWGHTQYGGTNALILQKGEIRVINQTTCENLLPQAITPRMMCVGFLSGGVDSCDGDSGGPLSSVEADGRIFQAGVVSWGDGCAQRNKPGVYTRLPLFRDWIKENTGV

EC50 of hC3 cleavage: 52.4 nM
B5: MTSP-1 I41S/D60bS/D96V/ins97aV/F97D/T98P/F99L/C122S/Q192G/F208L/D217N (enzyme)
chain: B1 chain with K23Q, T26S, Y47S, D91V, T132I, V206L, R215N

EC50 of hC3 cleavage: 2.43 nM
B6: MTSP-1 Q38H/I41S/D60bS/ins97aV/F97D/T98P/F99L/M117L/C122S/I136T/Q192G/D217I (enzyme)
chain: B1 chain with K23H, T26S, Y47S, M113L, V206F, R215I

EC50 of hC3 cleavage: 11.8 nM
B7: MTSP-1 Q38K/I41S/D60bV/ins97aV/F97D/T98P/F99L/M117T/C122S/Q145E/Q175L/Q192G (enzyme)
chain: B1 chain with T26S, Y47V, M113T, T132I, Q141E, Q170L, V206F, R215D

EC50 of hC3 cleavage: 3.06 nM
B8: MTSP-1 Q38H/I41A/D60bW/ins97aV/F97D/T98P/F99L/C122S/I136M/Q192G/D217N (enzyme)
chain: B1 chain with K23H, T26A, Y47W, T132M, V206F, R215N

EC50 of hC3 cleavage: 20.6 nM
B9: MTSP-1 I41S/D60bH/ins97aV/F97D/T98P/F99L/C122S/I136V/Q192G/D217N (enzyme)
chain: B1 chain with K23Q, T26S, Y47H, T132V, V206F, R215N

EC50 of hC3 cleavage: 15.4 nM
B10: MTSP-1 Q38H/I41S/D60bT/F60eS/Y60gW/ins97aV/F97D/T98P/F99L/C122S/G151N/Q175L/Q192D (enzyme)
chain: B4 chain with A170L

EC50 of hC3 cleavage: 37 nM
B11: MTSP-1 Q38H/I41S/D60bT/F93S/ins97aV/F97D/T98P/F99L/C122S/I136L/Q192G/D217A (enzyme)
chain: B1 chain with K23H, T26S, Y47T, F88S, T132L, V206F, R215A

EC50 of hC3 cleavage: 39.8 nM
B12: MTSP-1 Q38R/I41T/D60bT/ins97aV/F97D/T98P/F99L/C122S/I136V/Q192G/D217N/L233Q (enzyme)
chain: B1 chain with K23R, Y47T, T132V, V206F, R215N, L231Q

EC50 of hC3 cleavage: 6.78 nM
B13: MTSP-1 Q38H/I41S/D60bT/F60eS/Y60gW/ins97aV/F97D/T98P/F99L/C122S/G151N/Q175L/Q192E (enzyme)
chain: B4 chain with A170L, D189E

EC50 of hC3 cleavage: 4.36 nM
B14: MTSP-1 Q38H/I41A/D60bV/F60eR/Y60gW/D96Y/ins97aI/F97E/T98N/F99M/C122S/G151N/Q175L/Q192V (enzyme)
chain: B4 chain with S26A, T47V, S50R, D91Y, D92E, V93I, P94N, L95M, A170L, D189V

EC50 of hC3 cleavage: 21.2 nM
B15: MTSP-1 Q38H/I41S/D60bT/S90T/F97D/ins97aV/T98P/F99L/C122S/S127N/I136F/Q192G/D217Q (enzyme)
chain: B1 chain with K23H, T26S, Y47T, S85T, S123N, T132F, V206F, R215Q

EC50 of hC3 cleavage: 22.9 nM
B16: MTSP-1 Q38E/I41S/D60bV/F60eK/Y60gW/ins97aE/F97T/T98G/F99L/C122S/G151H/Q175L/Q192D (enzyme)
chain: B4 chain with H23E, T47V, S50K, D92T, V93E, P94G, N146H, A170L

EC50 of hC3 cleavage: 10.3 nM
B17: MTSP-1 Q38H/I41S/D60bG/ins97aV/F97D/T98P/F99L/M117T/C122S/N164D/Q192G/D217E (enzyme)
chain: B1 chain with K23H, T26S, Y47G, M113T, T132I, N159D, V206F, R215E

EC50 of hC3 cleavage: 48.3 nM
B18: MTSP-1 Q38H/I41S/P49Q/D60bS/F93L/ins97aV/F97D/T98P/F99L/C122S/Q192G/D217Q (enzyme)
chain: B1 chain with K23H, T26S, P34Q, Y47S, F88L, T132I, V206F, R215Q

EC50 of hC3 cleavage: 27.7 nM
B19: MTSP-1 I41S/D60bT/F93L/ins97aV/F97D/T98P/F99L/C122S/Q192G/D217H (enzyme)
chain: B1 chain with K23Q, T26S, Y47T, F88L, T132I, V206F, R215H

EC50 of hC3 cleavage: 22.2 nM
B20: MTSP-1 Q38H/I41S/D60bT/ins97aV/F97D/T98P/F99L/C122S/I136V/Q192G/D217S (enzyme)
chain: B1 chain with K23H, T26S, Y47T, T132V, V206F, R215S

EC50 of hC3 cleavage: 7.05 nM
B21: MTSP-1 Q38H/I41S/D60bS/ins97aV/F97D/T98P/F99L/C122S/I136V/Q192G/D217V (enzyme)
chain: B1 chain with K23H, T26S, Y47S, T132V, V206F, R215V

EC50 of hC3 cleavage: 10.2 nM
B22: MTSP-1 Q38E/I41A/D60bH/ins97aV/F97D/T98P/F99L/C122S/Q192G/Q209L/D217H (enzyme)
chain: B1 chain with K23E, T26A, Y47H, T132I, V206F, Q207L, R215H

EC50 of hC3 cleavage: 45.8 nM
B23: MTSP-1 Q38H/I41S/D60bT/F93L/ins97aV/F97D/T98P/F99L/S115N/C122S/Q192V/F208L/D217Q (enzyme)
chain: B4 chain with S50F, W52Y, F88L, S111N, N146G, A170Q, D189V, F206L, D215Q

EC50 of hC3 cleavage: 13.8 nM
B24: MTSP-1 Q38H/I41A/D60bE/F60eH/Y60gW/ins97aE/F97T/T98G/F99L/C122S/G151H/Q175L/Q192D (enzyme)
chain: B4 chain with S26A, T47E, S50H, D92T, V93E, P94G, N146H, A170L

EC50 of hC3 cleavage: 2.23 nM
B25: MTSP-1 Q38H/I41A/D60bV/F60eR/Y60gW/D96I/ins97aN/F97Y/T98G/F99L/C122S/G151N/Q175L/Q192D (enzyme)
chain: B4 chain with S26A, T47V, S50R, D91I, D92Y, V93N, P94G, A170L

EC50 of hC3 cleavage: 4.52 nM
B26: MTSP-1 I41T/D60bH/ins97aV/F97D/T98P/F99L/C122S/Q192G/D217I (enzyme)
chain: B1 chain with K23Q, Y47H, T132I, V206F, R215I

EC50 of hC3 cleavage: 6.42 nM
B27: MTSP-1 Q38H/I41A/D60bV/F60eI/Y60gW/ins97aE/F97T/T98G/F99L/C122S/G151H/Q175L/Q192D (enzyme)
chain: B4 chain with S26A, T47V, S50I, D92T, V93E, P94G, N146H, A170L

EC50 of hC3 cleavage: 7.09 nM
B28: MTSP-1 Q38H/I41S/D60bT/F60eS/Y60gW/D96K/ins97aA/F97D/T98P/F99L/C122S/G151H/Q175L/Q192D (enzyme)
chain: B4 chain with D91K, V93A, N146H, A170L

EC50 of hC3 cleavage: 22 nM
B29: MTSP-1 Q38H/I41S/L52M/D60bG/ins97aV/F97D/T98P/F99L/M117K/C122S/I136L/Q192G/D217A (enzyme)
chain: B1 chain with K23H, T26S, L37M, Y47G, M113K, T132L, V206F, R215A

EC50 of hC3 cleavage: 50 nM
B30: MTSP-1 L33M/Q38H/I41A/D60bA/ins97aV/F97D/T98P/F99L/C122S/Q192G/D217N (enzyme)
chain: B1 chain with L18M, K23H, T26A, Y47A, T132I, V206F, R215N

EC50 of hC3 cleavage: 25.5 nM
B31: MTSP-1 Q38H/I41T/D60bH/ins97aV/F97D/T98P/F99L/C122S/I136F/L153P/Q192G/D217Y (enzyme)
chain: B1 chain with K23H, Y47H, T132F, L148P, V206F, R215Y

EC50 of hC3 cleavage: 9.56 nM
B32: MTSP-1 Q38H/I41S/D60bS/F93L/D96Y/ins97aV/F97D/T98P/F99L/C122S/I136F/Q192G/D217V (enzyme)
chain: B1 chain with K23H, T26S, Y47S, F88L, D91Y, T132F, V206F, R215V

EC50 of hC3 cleavage: 5.52 nM
B33: MTSP-1 Q38H/I41S/D60bT/F60eT/Y60gW/ins97aV/F97D/T98P/F99L/C122S/G151H/Q175L/Q192V (enzyme)
chain: B4 chain with S50T, N146H, A170L, D189V

EC50 of hC3 cleavage: 5.93 nM
B34: MTSP-1 Q38H/I41A/D60bV/F60eR/Y60gW/ins97aE/F97T/T98G/F99L/C122S/G151H/Q175L/Q192D (enzyme)
chain: B4 chain with S26A, T47V, S50R, D92T, V93E, P94G, N146H, A170L

EC50 of hC3 cleavage: 10.6 nM
B35: MTSP-1 Q38H/I41A/D60bT/F60eK/Y60gW/ins97aE/F97T/T98G/F99L/C122S/G151H/Q175L/Q192D (enzyme)
chain: B4 chain with S26A, S50K, D92T, V93E, P94G, N146H, A170L

EC50 of hC3 cleavage: 9.75 nM
B36: MTSP-1 Q38H/I41T/D60bV/F60eR/Y60gW/D96I/ins97aN/F97Y/T98G/F99L/C122S/G151N/Q175L/Q192D (enzyme)
chain: B4 chain with S26T, T47V, S50R, D91I, D92Y, V93N, P94G, A170L
